In paper PMC3762362, “Three-color single molecule imaging shows WASP detachment from Arp2/3 complex triggers actin filament branch formation” (eLife, 2013):
Residue numbers refer to the chain shown, from its start. Names and notes keep the numbering of the source. Each block holds one binder with its values, some of them ahead of it.

Biological target: Rabbit muscle actin (monomeric) (rabbit, UniProt P68135 1-377)
Test: fluorescence polarisation; fluorescence anisotropy competition: 20 nM VCA-AF488 with rabbit muscle actin (150 nM in the legend, 200 nM in the methods) and increasing Cy3-diVCA construct; fit to a competition binding isotherm; 10 mM imidazole pH 7.0, 50 mM KCl, 1 mM EGTA, 1 mM MgCl2, 0.5 mM DTT, 0.1 mM ATP; room temperature
Details: both partners purified

Kd: 250 nM
B1: Cy3-diVCA-A* (Δ486–488) (domain or fragment)
chain: CGGSGGSGGSGGSSGRDALLDQIRQGIQLKSVADGQESTPPTPAPTSGIVGALMEVMQKRSKAIHSSEDEDDEEDFEDDDEWED
modifications: Cy3 bis-maleimide (BMCy3) crosslinks the single Cys of the N-terminal extension of the two chains
notes: extension appended at the N-terminus; its Cys reacts with the Cy3 bis-maleimide; human N-WASP VCA, residues 432-505, three-residue deletion in the A-region; Covalent dimer; same design as m1; also called A* mutant; source: E. coli BL21(DE3) T1R, purified (DEAE, Glutathione Sepharose, TEV cleavage, SOURCE 15Q, Superdex 200); not shown: GST, N-terminal, cleaved

Kd: 340 nM
B2: Cy3-diVCA wild-type (N-WASP VCA covalently dimerized with a Cy3 bis-maleimide) (domain or fragment)
chain: CGGSGGSGGSGGSSGRDALLDQIRQGIQLKSVADGQESTPPTPAPTSGIVGALMEVMQKRSKAIHSSDEDEDEDDEEDFEDDDEWED
modifications: Cy3 bis-maleimide (BMCy3) crosslinks the single Cys of the N-terminal extension of the two chains
notes: extension appended at the N-terminus; its Cys reacts with the Cy3 bis-maleimide; human N-WASP VCA, residues 432-505 (second WH2 motif (V) through the C-terminus); Covalent dimer; also called diVCA w.t; wild-type diVCA; source: E. coli BL21(DE3) T1R, purified (DEAE, Glutathione Sepharose, TEV cleavage, SOURCE 15Q, Superdex 200); not shown: GST, N-terminal, cleaved

Kd: 260 nM
B3: Cy3-diVCA-C* (I467A) (domain or fragment)
chain: B2 chain with I49A
modifications: Cy3 bis-maleimide (BMCy3) crosslinks the single Cys of the N-terminal extension of the two chains
notes: extension appended at the N-terminus; its Cys reacts with the Cy3 bis-maleimide; human N-WASP VCA, residues 432-505, mutated in the C-region; Covalent dimer; same design as m1; also called C* mutant; source: E. coli BL21(DE3) T1R, purified (DEAE, Glutathione Sepharose, TEV cleavage, SOURCE 15Q, Superdex 200); not shown: GST, N-terminal, cleaved

Kd: 660 nM
B4: Cy3-diVCA-V* (D435S/A436D) (domain or fragment)
chain: B2 chain with D17S, A18D
modifications: Cy3 bis-maleimide (BMCy3) crosslinks the single Cys of the N-terminal extension of the two chains
notes: extension appended at the N-terminus; its Cys reacts with the Cy3 bis-maleimide; human N-WASP VCA, residues 432-505, mutated in the V-region; Covalent dimer; same design as m1; also called V* mutant; source: E. coli BL21(DE3) T1R, purified (DEAE, Glutathione Sepharose, TEV cleavage, SOURCE 15Q, Superdex 200); not shown: GST, N-terminal, cleaved
